Test results from publication PMC8693978.

Legend:
[1] = target: EGFP-ARHGAP4 Rho-GAP deletion mutant (human); experiment: co-IP
[2] = target: EGFP-ARHGAP4 SH3 deletion mutant (human); experiment: co-IP

Binder	percent of the co-precipitation by full-length ARHGAP4 [1]	percent of the co-precipitation by full-length ARHGAP4 [2]
SEPT2 (natural protein) MSKQQPTQFINPETPGYVGFANLPNQVHRKSVKKGFEFTLMVVGESGLGKSTLINSLFLTDLYPERVIPGAAEKIERTVQIEASTVEIEERGVKLRLTVVDTPGYGDAINCRDCFKTIISYIDEQFERYLHDESGLNRRHIIDNRVHCCFYFISPFGHGLKPLDVAFMKAIHNKVNIVPVIAKADTLTLKERERLKKRILDEIEEHNIKIYHLPDAESDEDEDFKEQTRLLKASIPFSVVGSNQLIEAKGKKVRGRLYPWGVVEVENPEHNDFLKLRTMLITHMQDLQEVTQDLHYENFRSERLKRGGRKVENEDMNKDQILLEKEAELRRMQEMIARMQAQMQMQMQGGDGDGGALGHHV	55%	65%
SEPT9 (natural protein) MKKSYSGGTRTSSGRLRRLGDSSGPALKRSFEVEEVETPNSTPPRRVQTPLLRATVASSTQKFQDLGVKNSEPSARHVDSLSQRSPKASLRRVELSGPKAAEPVSRRTELSIDISSKQVENAGAIGPSRFGLKRAEVLGHKTPEPAPRRTEITIVKPQESAHRRMEPPASKVPEVPTAPATDAAPKRVEIQMPKPAEAPTAPSPAQTLENSEPAPVSQLQSRLEPKPQPPVAEATPRSQEATEAAPSCVGDMADTPRDAGLKQAPASRNEKAPVDFGYVGIDSILEQMRRKAMKQGFEFNIMVVGQSGLGKSTLINTLFKSKISRKSVQPTSEERIPKTIEIKSITHDIEEKGVRMKLTVIDTPGFGDHINNENCWQPIMKFINDQYEKYLQEEVNINRKKRIPDTRVHCCLYFIPATGHSLRPLDIEFMKRLSKVVNIVPVIAKADTLTLEERVHFKQRITADLLSNGIDVYPQKEFDEDSEDRLVNEKFREMIPFAVVGSDHEYQVNGKRILGRKTKWGTIEVENTTHCEFAYLRDLLIRTHMQNIKDITSSIHFEAYRVKRLNEGSSAMANGMEEKEPEAPEM	55%	65%
